Drawing on PMC12102759 (2025), this text covers screen value for 56 variants.

Sequences and labels used below:
B1: TPTE2 peptide 92-107 (Phosphatidylinositol 3,4,5-trisphosphate 3-phosphatase TPTE2), 16-mer library wild type / TLN1 PTB (TLN1 Phosphotyrosine-binding (PTB) domain, residues 309-401) (parent complex)
chain 1: LADLIFTDSKLYIPLE
chain 2: GVSFFLVKEKMKGKNKLVPRLLGITKECVMRVDEKTKEVIQEWNLTNIKRWAASPKSFTLDFGDYQDGYYSVQTTEGEQIAQLIAGYIDIILK
B2: AMOTL2 peptide 66-81 (Angiomotin-like protein 2), 16-mer library wild type / TNKS ANK (TNKS 12 ANK repeats, residues 174-649) (parent complex)
chain 1: LQQATRQEPQGQEHQG
chain 2: TGVPAVSGALRELLEACRNGDVSRVKRLVDAANVNAKDMAGRKSSPLHFAAGFGRKDVVEHLLQMGANVHARDDGGLIPLHNACSFGHAEVVSLLLCQGADPNARDNWNYTPLHEAAIKGKIDVCIVLLQHGADPNIRNTDGKSALDLADPSAKAVLTGEYKKDELLEAARSGNEEKLMALLTPLNVNCHASDGRKSTPLHLAAGYNRVRIVQLLLQHGADVHAKDKGGLVPLHNACSYGHYEVTELLLKHGACVNAMDLWQFTPLHEAASKNRVEVCSLLLSHGADPTLVNCHGKSAVDMAPTPELRERLTYEFKGHSLLQAAREADLAKVKKTLALEIINFKQPQSHETALHCAVASLHPKRKQVTELLLRKGANVNEKNKDFMTPLHVAAERAHNDVMEVLHKHGAKMNALDTLGQTALHRAALAGHLQTCRLLLSYGSDPSIISLQGFTAAQMGNEAVQQILSESTPIRTSD

In one assay the parent is B1. The experiment in a line: proteomic peptide phage display deep mutational scan (ProP-PD DMS): M13 P8 16-mer library selected against immobilised GST-tagged bait for four days (rounds), NGS of the eluted pools per day and pseudo-replica; bait immobilised on MaxiSorp plates (10 µg), library pre-cleared on GST, 2 h binding at 4 °C, five washes; one round per day, days 1-4; value from days 2 and 3.
As for chain 1 LAPLIFTDSKLYIPLE [chain 1 D3P], the screen value was 0.000181 average fractional NGS count over selection days 2 and 3 (reads of this peptide / all reads for the bait, averaged over ….

As for chain 1 LANLIFTDSKLYIPLE [chain 1 D3N], the screen value was 0.000465 average fractional NGS count over selection days 2 and 3 (reads of this peptide / all reads for the bait, averaged over ….

For chain 1 LADLIFTDSKLYVPLE [chain 1 I13V], the screen value was 0.00758 average fractional NGS count over selection days 2 and 3 (reads of this peptide / all reads for the bait, averaged over ….

With chain 1 LADVIFTDSKLYIPLE [chain 1 L4V], the screen value was 0.0013 average fractional NGS count over selection days 2 and 3 (reads of this peptide / all reads for the bait, averaged over ….

chain 1 LADIIFTDSKLYIPLE [chain 1 L4I]: the screen value was 0.00221 average fractional NGS count over selection days 2 and 3 (reads of this peptide / all reads for the bait, averaged over ….

Regarding chain 1 LADYIFTDSKLYIPLE [chain 1 L4Y], the screen value was 0.00693 average fractional NGS count over selection days 2 and 3 (reads of this peptide / all reads for the bait, averaged over ….

With chain 1 LADLPFTDSKLYIPLE [chain 1 I5P], the screen value was 0.000122 average fractional NGS count over selection days 2 and 3 (reads of this peptide / all reads for the bait, averaged over ….

Consider chain 1 LADLMFTDSKLYIPLE [chain 1 I5M], for which the screen value was 0.000604 average fractional NGS count over selection days 2 and 3 (reads of this peptide / all reads for the bait, averaged over ….

With chain 1 LADLIFTASKLYIPLE [chain 1 D8A], the screen value was 0.000152 average fractional NGS count over selection days 2 and 3 (reads of this peptide / all reads for the bait, averaged over ….

On to chain 1 LADLIFTDSHLYIPLE [chain 1 K10H], for which the screen value is 0.00033 average fractional NGS count over selection days 2 and 3 (reads of this peptide / all reads for the bait, averaged over ….

Regarding chain 1 LADLIFTDSKLYIPHE [chain 1 L15H], the screen value was 0.00102 average fractional NGS count over selection days 2 and 3 (reads of this peptide / all reads for the bait, averaged over ….

Consider chain 1 LADLIFTDSKLYIPKE [chain 1 L15K], for which the screen value was 0.000159 average fractional NGS count over selection days 2 and 3 (reads of this peptide / all reads for the bait, averaged over ….

Take chain 1 LADLIFTDSKLYIPFE [chain 1 L15F]: the screen value is 0.000576 average fractional NGS count over selection days 2 and 3 (reads of this peptide / all reads for the bait, averaged over ….

Take chain 1 LADLIFTDNKLYIPLE [chain 1 S9N]: the screen value was 0.00167 average fractional NGS count over selection days 2 and 3 (reads of this peptide / all reads for the bait, averaged over ….

Take chain 1 LPDLIFTDSKLYIPLE [chain 1 A2P]: the screen value is 0.000416 average fractional NGS count over selection days 2 and 3 (reads of this peptide / all reads for the bait, averaged over ….

Turning to chain 1 LEDLIFTDSKLYIPLE [chain 1 A2E], the screen value was 0.000377 average fractional NGS count over selection days 2 and 3 (reads of this peptide / all reads for the bait, averaged over ….

On to chain 1 LHDLIFTDSKLYIPLE [chain 1 A2H], for which the screen value was 0.00143 average fractional NGS count over selection days 2 and 3 (reads of this peptide / all reads for the bait, averaged over ….

As for chain 1 LADLIFYDSKLYIPLE [chain 1 T7Y], the screen value was 0.000282 average fractional NGS count over selection days 2 and 3 (reads of this peptide / all reads for the bait, averaged over ….

Another assay covers variants of B2. The assay is described as above.
Turning to chain 1 LQQATRQEPNGQEHQG [chain 1 Q10N], the screen value is 0.000239 average fractional NGS count over selection days 2 and 3 (reads of this peptide / all reads for the bait, averaged over ….

Take chain 1 LQQATRQEPHGQEHQG [chain 1 Q10H]: the screen value is 0.000277 average fractional NGS count over selection days 2 and 3 (reads of this peptide / all reads for the bait, averaged over ….

As to chain 1 LQQATRQEPDGQEHQG [chain 1 Q10D], the screen value is 0.00111 average fractional NGS count over selection days 2 and 3 (reads of this peptide / all reads for the bait, averaged over ….

Regarding chain 1 LQQATRQEPSGQEHQG [chain 1 Q10S], the screen value was 0.000273 average fractional NGS count over selection days 2 and 3 (reads of this peptide / all reads for the bait, averaged over ….

As to chain 1 LQQATRQEPWGQEHQG [chain 1 Q10W], the screen value was 0.000745 average fractional NGS count over selection days 2 and 3 (reads of this peptide / all reads for the bait, averaged over ….

chain 1 LQQATRQEPYGQEHQG [chain 1 Q10Y]: the screen value is 0.00045 average fractional NGS count over selection days 2 and 3 (reads of this peptide / all reads for the bait, averaged over ….

For the variant chain 1 LQQATRQEPQTQEHQG [chain 1 G11T], the screen value is 0.000177 average fractional NGS count over selection days 2 and 3 (reads of this peptide / all reads for the bait, averaged over ….

For the variant chain 1 LQQAIRQEPQGQEHQG [chain 1 T5I], the screen value is 0.000401 average fractional NGS count over selection days 2 and 3 (reads of this peptide / all reads for the bait, averaged over ….

Regarding chain 1 LQQAMRQEPQGQEHQG [chain 1 T5M], the screen value was 0.000134 average fractional NGS count over selection days 2 and 3 (reads of this peptide / all reads for the bait, averaged over ….

Take chain 1 LQQANRQEPQGQEHQG [chain 1 T5N]: the screen value is 0.000716 average fractional NGS count over selection days 2 and 3 (reads of this peptide / all reads for the bait, averaged over ….

With chain 1 LNQATRQEPQGQEHQG [chain 1 Q2N], the screen value is 0.000675 average fractional NGS count over selection days 2 and 3 (reads of this peptide / all reads for the bait, averaged over ….

For the variant chain 1 LSQATRQEPQGQEHQG [chain 1 Q2S], the screen value was 0.00082 average fractional NGS count over selection days 2 and 3 (reads of this peptide / all reads for the bait, averaged over ….

With chain 1 LHQATRQEPQGQEHQG [chain 1 Q2H], the screen value was 0.00198 average fractional NGS count over selection days 2 and 3 (reads of this peptide / all reads for the bait, averaged over ….

With chain 1 LEQATRQEPQGQEHQG [chain 1 Q2E], the screen value was 0.00238 average fractional NGS count over selection days 2 and 3 (reads of this peptide / all reads for the bait, averaged over ….

Turning to chain 1 LGQATRQEPQGQEHQG [chain 1 Q2G], the screen value was 0.00015 average fractional NGS count over selection days 2 and 3 (reads of this peptide / all reads for the bait, averaged over ….

Consider chain 1 LKQATRQEPQGQEHQG [chain 1 Q2K], for which the screen value was 0.000265 average fractional NGS count over selection days 2 and 3 (reads of this peptide / all reads for the bait, averaged over ….

Take chain 1 LDQATRQEPQGQEHQG [chain 1 Q2D]: the screen value was 0.000375 average fractional NGS count over selection days 2 and 3 (reads of this peptide / all reads for the bait, averaged over ….

On to chain 1 LTQATRQEPQGQEHQG [chain 1 Q2T], for which the screen value is 0.00025 average fractional NGS count over selection days 2 and 3 (reads of this peptide / all reads for the bait, averaged over ….

Turning to chain 1 LMQATRQEPQGQEHQG [chain 1 Q2M], the screen value is 0.000757 average fractional NGS count over selection days 2 and 3 (reads of this peptide / all reads for the bait, averaged over ….

With chain 1 LAQATRQEPQGQEHQG [chain 1 Q2A], the screen value was 0.000379 average fractional NGS count over selection days 2 and 3 (reads of this peptide / all reads for the bait, averaged over ….

With chain 1 LQQATRMEPQGQEHQG [chain 1 Q7M], the screen value was 0.00184 average fractional NGS count over selection days 2 and 3 (reads of this peptide / all reads for the bait, averaged over ….

For chain 1 LQQATRYEPQGQEHQG [chain 1 Q7Y], the screen value was 0.000137 average fractional NGS count over selection days 2 and 3 (reads of this peptide / all reads for the bait, averaged over ….

Consider chain 1 LQQATRWEPQGQEHQG [chain 1 Q7W], for which the screen value was 0.000185 average fractional NGS count over selection days 2 and 3 (reads of this peptide / all reads for the bait, averaged over ….

Consider chain 1 LQQATRHEPQGQEHQG [chain 1 Q7H], for which the screen value is 0.00159 average fractional NGS count over selection days 2 and 3 (reads of this peptide / all reads for the bait, averaged over ….

As for chain 1 LQQATRQGPQGQEHQG [chain 1 E8G], the screen value was 0.000387 average fractional NGS count over selection days 2 and 3 (reads of this peptide / all reads for the bait, averaged over ….

On to chain 1 LQQATRQAPQGQEHQG [chain 1 E8A], for which the screen value was 0.000174 average fractional NGS count over selection days 2 and 3 (reads of this peptide / all reads for the bait, averaged over ….

For the variant chain 1 LQQATRQDPQGQEHQG [chain 1 E8D], the screen value is 0.000313 average fractional NGS count over selection days 2 and 3 (reads of this peptide / all reads for the bait, averaged over ….

chain 1 LQQATRQFPQGQEHQG [chain 1 E8F]: the screen value is 0.00124 average fractional NGS count over selection days 2 and 3 (reads of this peptide / all reads for the bait, averaged over ….

As to chain 1 LQQATRQQPQGQEHQG [chain 1 E8Q], the screen value was 0.000434 average fractional NGS count over selection days 2 and 3 (reads of this peptide / all reads for the bait, averaged over ….

chain 1 LQQATRQHPQGQEHQG [chain 1 E8H]: the screen value is 0.000322 average fractional NGS count over selection days 2 and 3 (reads of this peptide / all reads for the bait, averaged over ….

In the case of chain 1 LQQATRQSPQGQEHQG [chain 1 E8S], the screen value is 0.000226 average fractional NGS count over selection days 2 and 3 (reads of this peptide / all reads for the bait, averaged over ….

chain 1 LQFATRQEPQGQEHQG [chain 1 Q3F]: the screen value was 0.000606 average fractional NGS count over selection days 2 and 3 (reads of this peptide / all reads for the bait, averaged over ….

On to chain 1 LQVATRQEPQGQEHQG [chain 1 Q3V], for which the screen value was 0.000386 average fractional NGS count over selection days 2 and 3 (reads of this peptide / all reads for the bait, averaged over ….

chain 1 LQHATRQEPQGQEHQG [chain 1 Q3H]: the screen value is 0.00741 average fractional NGS count over selection days 2 and 3 (reads of this peptide / all reads for the bait, averaged over ….

As for chain 1 LQWATRQEPQGQEHQG [chain 1 Q3W], the screen value is 0.000779 average fractional NGS count over selection days 2 and 3 (reads of this peptide / all reads for the bait, averaged over ….

As to chain 1 LQDATRQEPQGQEHQG [chain 1 Q3D], the screen value was 0.000274 average fractional NGS count over selection days 2 and 3 (reads of this peptide / all reads for the bait, averaged over ….

chain 1 LQYATRQEPQGQEHQG [chain 1 Q3Y]: the screen value was 0.000305 average fractional NGS count over selection days 2 and 3 (reads of this peptide / all reads for the bait, averaged over ….

As to chain 1 LQNATRQEPQGQEHQG [chain 1 Q3N], the screen value is 0.000319 average fractional NGS count over selection days 2 and 3 (reads of this peptide / all reads for the bait, averaged over ….
